Assay results: US20170129962A1 (Hoffmann-La Roche, published 2017)
Residue numbers refer to the chain shown, from its start. In names and notes the source's numbering stands. Values belong to the binder of their own block, whether it stands above or below them.

Experiments:
[1] = target: T1, human Ang-2-RBD-Fc (human, UniProt O15123 275-496, limits assumed); assay: SPR (Biacore T200), bispecific antibody captured by anti-human F(ab')2, Ang2-RBD-Fc as analyte, 1:1 Langmuir
T1 construct: domain: RBD; Analyte in solution; not shown: Fc part
T1 sequence (looked up): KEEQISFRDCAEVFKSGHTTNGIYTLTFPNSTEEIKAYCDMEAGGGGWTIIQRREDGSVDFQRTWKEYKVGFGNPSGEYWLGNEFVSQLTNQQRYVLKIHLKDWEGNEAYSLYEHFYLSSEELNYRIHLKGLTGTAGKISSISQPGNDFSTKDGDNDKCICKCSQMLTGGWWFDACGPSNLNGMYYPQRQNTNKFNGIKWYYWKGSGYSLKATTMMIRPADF
Protocol: (§1) Binding of indicated antibodies to human Ang-2-RBD-Fc was investigated by surface plasmon resonance using a BIACORE® T200 instrument (GE Healthcare). Around 8000 (RU) of goat anti human F(ab′)₂ (10 μg/ml anti human F(ab)′₂; Order Code: 28958325; GE Healthcare Bio-Sciences AB, Sweden) were coupled on a Series S CMS chip (GE Healthcare BR-1005-30) at pH 5.0 by using an amine coupling kit supplied by the GE Healthcare. HBS-N (10 mM HEPES, 150 mM NaCl pH 7.4, GE Healthcare) was used as running buffer during the immobilization procedure. For the following kinetic characterization, sample and running buffer was PBS-T (10 mM phosphate buffered saline including 0.05% Tween20) at pH 7.4. The flow cell was set to 25° C.—and the sample block set to 12° C.—and primed with running buffer twice prior to kinetic characterization.
(§2) The bispecific antibody was captured by injecting a 5 nM solution for 25 sec at a flow of 5 μl/min. The association was measured by injection of human Ang2-RBD-Fc in various concentrations in solution for 120 sec at a flow of 30 μl/min starting with 100 nM in 1:3 serial dilutions. The dissociation phase was monitored for up to 180 sec and triggered by switching from the sample solution to running buffer. The surface was regenerated by 60 sec washing with a Glycine pH 2.1 solution at a flow rate of 30 μl/min. Bulk refractive index differences were corrected by subtracting the response obtained from a goat anti human F(ab′)₂ surface. Blank injections are also subtracted (=double referencing). For calculation of apparent KD the Langmuir 1:1 model was used.
(§3) Binding of the multispecific antibodies to their respective target antigens, i.e. ANG2 and VEGF, was assessed by Biacore® as described in the general methods section.

[2] = target: T1, human Ang-2-RBD-Fc; assay: SPR (Biacore T200), bispecific antibody captured by anti-human F(ab')2, Ang2-RBD-Fc as analyte, 1:1 Langmuir, apparent KD
Protocol: as §1, §2

[3] = target: T2, human VEGFA-121 (VEGF-A-121-His) (human, UniProt P15692-9 27-147); assay: SPR (Biacore T200), VEGF-A-121-His captured by anti-His antibody, bispecific antibody as analyte, 1:1 Langmuir
T2 construct: Captured on the chip through an anti-His antibody; not shown: His tag
T2 sequence (looked up): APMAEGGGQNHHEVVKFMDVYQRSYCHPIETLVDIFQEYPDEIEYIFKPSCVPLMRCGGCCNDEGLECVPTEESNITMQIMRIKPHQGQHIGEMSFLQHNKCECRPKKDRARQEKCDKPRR
Protocol: Around 10000 (RU) of anti His antibody (1 μg/ml anti His antibody; Order Code: 28995056; GE Healthcare Bio-Sciences AB, Sweden) were coupled on a Series S CM5 chip (GE Healthcare BR-1005-30) at pH 5.0 by using an amine coupling kit supplied by the GE Healthcare. HBS-N (10 mM HEPES, 150 mM NaCl pH 7.4, GE Healthcare) was used as running buffer during the immobilization procedure. For the following kinetic characterization, sample and running buffer was PBS-T (10 mM phosphate buffered saline including 0.05% Tween20) at pH 7.4. The flow cell was set to 25° C.—and the sample block set to 12° C.—and primed with running buffer twice prior to kinetic characterization.
as §3

koff [1]: 0.0182 s⁻¹
kon [1]: 1.08e+07 M⁻¹ s⁻¹
Kd [2]: 2 nM
Kd [3]: 4 nM
koff [3]: 8.65e-05 s⁻¹
kon [3]: 20400 M⁻¹ s⁻¹
B1: Ang2VEGF-0454 (bispecific antibody, human IgG1, kappa)
light 1: QPGLTQPPSVSVAPGQTARITCGGNNIGSKSVHWYQQKPGQAPVLVVYDDSDRPSGIPERFSGSNSGNTATLTISRVEAGDEADYYCQVWDSSSDHYVFGTGTKVTVLRTVAAPSVFIFPPSDEQLKSGTASVVCLLNNFYPREAKVQWKVDNALQSGNSQESVTEQDSKDSTYSLSSTLTLSKADYEKHKVYACEVTHQGLSSPVTKSFNRGEC
heavy 1: not shown
light 2: DIQMTQSPSSLSASVGDRVTITCSASQDISNYLNWYQQKPGKAPKVLIYFTSSLHSGVPSRFSGSGSGTDFTLTISSLQPEDFATYYCQQYSTVPWTFGQGTKVEIKSSASTKGPSVFPLAPSSKSTSGGTAALGCLVKDYFPEPVTVSWNSGALTSGVHTFPAVLQSSGLYSLSSVVTVPSSSLGTQTYICNVNHKPSNTKVDKKVEPKSC
heavy 2: not shown
notes: also called Ang2VEGF-0454-0002; Ang2VEGF-0454-0002 (control)

koff [1]: 0.0199 s⁻¹
kon [1]: 8.8e+06 M⁻¹ s⁻¹
Kd [2]: 2 nM
Kd [3]: 4 nM
koff [3]: 7.19e-05 s⁻¹
kon [3]: 17000 M⁻¹ s⁻¹
B2: Ang2VEGF-0459 (bispecific antibody, human IgG1, kappa)
light 1: B1 light 1
heavy 1: not shown
light 2: B1 light 2 with K139E
heavy 2: not shown
notes: CrossMAb CH1-CL, knob-into-hole with S354C/Y349C; also called Ang2VEGF-0459-0002

koff [1]: 0.0163 s⁻¹
kon [1]: 8.76e+06 M⁻¹ s⁻¹
Kd [2]: 2 nM
Kd [3]: 6 nM
koff [3]: 8.18e-05 s⁻¹
kon [3]: 14200 M⁻¹ s⁻¹
B3: Ang2VEGF-0460 (bispecific antibody, human IgG1, kappa)
light 1: B1 light 1
heavy 1: not shown
light 2: B1 light 2 with K205E
heavy 2: not shown
notes: CrossMAb CH1-CL, knob-into-hole with S354C/Y349C; also called Ang2VEGF-0460-0002

koff [1]: 0.00505 s⁻¹
kon [1]: 1.38e+06 M⁻¹ s⁻¹
Kd [2]: 4 nM
Kd [3]: 7 nM
koff [3]: 7.26e-05 s⁻¹
kon [3]: 10500 M⁻¹ s⁻¹
B4: Ang2VEGF-0475 (bispecific antibody, human IgG1, kappa)
light 1: B1 light 1 with Q125E
heavy 1: not shown
light 2: B1 light 2
heavy 2: not shown
notes: CrossMAb CH1-CL, knob-into-hole with S354C/Y349C

koff [1]: 0.0325 s⁻¹
kon [1]: 1.17e+07 M⁻¹ s⁻¹
Kd [2]: 3 nM
Kd [3]: 5 nM
koff [3]: 7.96e-05 s⁻¹
kon [3]: 16000 M⁻¹ s⁻¹
B5: Ang2VEGF-0465 (bispecific antibody, human IgG1, kappa)
light 1: B1 light 1 with Q37K, E124K, Q125K
heavy 1: not shown
light 2: B1 light 2 with Q38K
heavy 2: not shown
notes: CrossMAb CH1-CL, knob-into-hole with S354C/Y349C; also called Ang2VEGF-0465-0002

koff [1]: 0.0163 s⁻¹
kon [1]: 1.07e+07 M⁻¹ s⁻¹
Kd [2]: 2 nM
Kd [3]: 4 nM
koff [3]: 7.67e-05 s⁻¹
kon [3]: 19200 M⁻¹ s⁻¹
B6: Ang2VEGF-0461 (bispecific antibody, human IgG1, kappa)
light 1: B1 light 1 with E124K, Q125R
heavy 1: not shown
light 2: B1 light 2
heavy 2: not shown
notes: CrossMAb CH1-CL, knob-into-hole with S354C/Y349C; also called Ang2VEGF-0461-0002

koff [1]: 0.031 s⁻¹
kon [1]: 1.06e+07 M⁻¹ s⁻¹
Kd [2]: 3 nM
Kd [3]: 4 nM
koff [3]: 8.01e-05 s⁻¹
kon [3]: 18600 M⁻¹ s⁻¹
B7: Ang2VEGF-0466 (bispecific antibody, human IgG1, kappa)
light 1: B1 light 1 with Q37K, E124K, Q125K
heavy 1: not shown
light 2: B1 light 2 with Q38K
heavy 2: not shown
notes: CrossMAb CH1-CL, knob-into-hole with S354C/Y349C; also called Ang2VEGF-0466-0002

koff [1]: 0.00823 s⁻¹
kon [1]: 2.19e+06 M⁻¹ s⁻¹
Kd [2]: 4 nM
Kd [3]: 3 nM
koff [3]: 6.1e-05 s⁻¹
kon [3]: 19500 M⁻¹ s⁻¹
B8: Ang2VEGF-0477 (bispecific antibody, human IgG1, kappa)
light 1: B1 light 1 with Q125K
heavy 1: not shown
light 2: B1 light 2
heavy 2: not shown
notes: as for B4

koff [1]: 0.0114 s⁻¹
kon [1]: 1.32e+06 M⁻¹ s⁻¹
Kd [2]: 9 nM
Kd [3]: 4 nM
koff [3]: 6.94e-05 s⁻¹
kon [3]: 18500 M⁻¹ s⁻¹
B9: Ang2VEGF-0476 (bispecific antibody, human IgG1, kappa)
light 1: B1 light 1 with Q125E
heavy 1: not shown
light 2: B1 light 2 with K205E
heavy 2: not shown
notes: as for B4

koff [1]: 0.0227 s⁻¹
kon [1]: 1.06e+07 M⁻¹ s⁻¹
Kd [2]: 2 nM
Kd [3]: 7 nM
koff [3]: 9.01e-05 s⁻¹
kon [3]: 12600 M⁻¹ s⁻¹
B10: Ang2VEGF-0455 (bispecific antibody, human IgG1, kappa)
light 1: B1 light 1 with Q125K
heavy 1: not shown
light 2: B1 light 2
heavy 2: not shown
notes: CrossMAb CH1-CL, knob-into-hole with S354C/Y349C; also called Ang2VEGF-0455-0002

koff [1]: 0.0281 s⁻¹
kon [1]: 9.54e+06 M⁻¹ s⁻¹
Kd [2]: 3 nM
Kd [3]: 4 nM
koff [3]: 7.44e-05 s⁻¹
kon [3]: 17600 M⁻¹ s⁻¹
B11: Ang2VEGF-0463 (bispecific antibody, human IgG1, kappa)
light 1: B1 light 1 with E124K, Q125R
heavy 1: not shown
light 2: B1 light 2
heavy 2: not shown
notes: CrossMAb CH1-CL, knob-into-hole with S354C/Y349C; also called Ang2VEGF-0463-0002

koff [1]: 0.0252 s⁻¹
kon [1]: 1.21e+07 M⁻¹ s⁻¹
Kd [2]: 2 nM
Kd [3]: 4 nM
koff [3]: 7.52e-05 s⁻¹
kon [3]: 21200 M⁻¹ s⁻¹
B12: Ang2VEGF-0462 (bispecific antibody, human IgG1, kappa)
light 1: B1 light 1 with E124K, Q125R
heavy 1: not shown
light 2: B1 light 2
heavy 2: not shown
notes: CrossMAb CH1-CL, knob-into-hole with S354C/Y349C; also called Ang2VEGF-0462-0002

koff [1]: 0.0097 s⁻¹
kon [1]: 2.04e+06 M⁻¹ s⁻¹
Kd [2]: 5 nM
Kd [3]: 3 nM
koff [3]: 5.41e-05 s⁻¹
kon [3]: 21300 M⁻¹ s⁻¹
B13: Ang2VEGF-0474 (bispecific antibody, human IgG1, kappa)
light 1: B1 light 1 with Q125K
heavy 1: not shown
light 2: B1 light 2
heavy 2: not shown
notes: as for B4

koff [1]: 0.0252 s⁻¹
kon [1]: 1.16e+07 M⁻¹ s⁻¹
Kd [2]: 2 nM
Kd [3]: 4 nM
koff [3]: 8.4e-05 s⁻¹
kon [3]: 21000 M⁻¹ s⁻¹
B14: Ang2VEGF-0456 (bispecific antibody, human IgG1, kappa)
light 1: B1 light 1 with Q125K
heavy 1: not shown
light 2: B1 light 2
heavy 2: not shown
notes: CrossMAb CH1-CL, knob-into-hole with S354C/Y349C; also called Ang2VEGF-0456-0002

koff [1]: 0.0172 s⁻¹
kon [1]: 8.81e+06 M⁻¹ s⁻¹
Kd [2]: 2 nM
Kd [3]: 5 nM
koff [3]: 7.54e-05 s⁻¹
kon [3]: 16600 M⁻¹ s⁻¹
B15: Ang2VEGF-0464 (bispecific antibody, human IgG1, kappa)
light 1: B1 light 1 with Q37E, E124K, Q125K
heavy 1: not shown
light 2: B1 light 2 with Q38K
heavy 2: not shown
notes: CrossMAb CH1-CL, knob-into-hole with S354C/Y349C; also called Ang2VEGF-0464-0002
